Source: patent US20030235860A1, “Interactions between AR, ER, TR2, and TR4” (priority 1999, published 2003)
No end group written: not given here.

T1: GST-TR2 (Homo sapiens, UniProt P13056)
T1 construct: pGEX-3x-TR2 were constructed by inserting full-length TR2 fragments to individual vectors; made in house; host or cells: E. coli BL21(DE3) pLysS
T1 sequence (P13056 1-603): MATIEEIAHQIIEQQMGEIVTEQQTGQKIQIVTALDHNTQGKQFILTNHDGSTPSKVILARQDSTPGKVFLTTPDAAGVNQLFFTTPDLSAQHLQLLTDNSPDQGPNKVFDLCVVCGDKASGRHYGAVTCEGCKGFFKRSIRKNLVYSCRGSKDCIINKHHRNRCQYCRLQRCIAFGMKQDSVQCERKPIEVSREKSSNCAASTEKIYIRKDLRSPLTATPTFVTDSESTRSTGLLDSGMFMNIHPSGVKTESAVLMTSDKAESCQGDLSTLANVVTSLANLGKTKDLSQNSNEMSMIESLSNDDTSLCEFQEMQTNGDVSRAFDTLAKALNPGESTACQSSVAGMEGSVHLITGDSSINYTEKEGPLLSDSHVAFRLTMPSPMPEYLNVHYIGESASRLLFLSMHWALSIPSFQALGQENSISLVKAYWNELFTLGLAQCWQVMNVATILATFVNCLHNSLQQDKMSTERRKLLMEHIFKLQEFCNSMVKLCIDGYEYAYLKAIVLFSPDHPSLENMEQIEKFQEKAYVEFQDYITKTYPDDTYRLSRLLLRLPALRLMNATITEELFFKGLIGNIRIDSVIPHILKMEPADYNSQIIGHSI

T2: ER homodimer (Homo sapiens, UniProt P03372)
T2 sequence (P03372 312-595): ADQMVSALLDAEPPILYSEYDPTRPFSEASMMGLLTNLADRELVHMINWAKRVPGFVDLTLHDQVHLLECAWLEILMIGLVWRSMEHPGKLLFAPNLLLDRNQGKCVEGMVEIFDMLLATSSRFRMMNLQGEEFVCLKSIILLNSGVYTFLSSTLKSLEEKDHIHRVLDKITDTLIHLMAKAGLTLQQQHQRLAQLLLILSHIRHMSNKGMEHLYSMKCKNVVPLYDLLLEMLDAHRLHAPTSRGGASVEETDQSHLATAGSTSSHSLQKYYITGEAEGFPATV


Tests used:
[1] = target: T1, GST-TR2; experiment: GST-TR2 pull-down assay; assay type: binding; conditions: for Interaction with GST-TR2 fusion protein: 35S methionine-labeled proteins, Example 4; for Interaction with GST-TR2 in pull-down assay / Direct interaction with GST-TR2 fusion protein: in vitro translated [35S]-labeled proteins; for Interaction with GST-TR2 in pull-down assay: Example 1; for Direct interaction with GST-TR2 fusion protein: Example 2
Procedure: Fusion proteins of GST-TR2, GST-ER segments and GST were obtained by transforming expressing plasmids into BL21(DE3) pLysS competent bacteria followed with 2-hour IPTG induction. GST-proteins were then purified by mixing Glutathione-Sepharose™ 4B (Pharmacia) into bacteria lysates on a rotating disk at 4° C. for 40 mm followed by washing with 1 mL NENT buffer (20 mM Tris-HCL (pH 8.0), 100 mM NaCl, 1 mM EDTA, 6 mM MgCl2, 1 mM Dithiothretiol, 8% Glycerol, 1 mM PMSF and 0.5% (v/v) NP-40). The ER, AR, RXRA., and TR2 proteins labeled with [35S] were generated in vitro by using the TNT reticulocyte lysate system (Promega). For the in vitro interaction, the glutathione-Sepharose bound GST-proteins were resuspended with 100 μl of interaction buffer (20 mM HEPES pH 7.9, 150 mM KCl, 5 mM MgCl2. 0.5 mM EDTA, 0.5 mM Dithiothretiol, 0.1% (v/v) NP-40, 0.1% (w/v) BSA and 1 mM PMSF) and mixed with 5 μl of […] at 4° C. for 3 h. After extensive washes with NENT buffer, the bound proteins were separated on an SDS/8% PAGE and visualized by using autoradiography.
GST alone and GST fusion proteins were purified by Glutathione-Sepharose 4B beads as instructed by manufacturer (Amersham Pharmacia). The pull-down assay was performed with 5 μl of in vitro-translated [^35S]-labeled proteins as described previously (Yeh, S. et al. (2000) Proc. Natl. Acad. Sci. USA 97, 11256-61).
GST control protein and GST-TR2 fusion protein were purified by glutathione-sepharose 4B beads as described by manufacture (Amersham. Biosciences). Five microliters of in vitro-translated 35S-methionine-labeled proteins was used to perform the Pull-down assay as described previously [4F].

[2] = target: T2, ER homodimer; experiment: ER homodimer formation, competition GST pull-down (GST-ER-LBD with [35S]-ER); conditions: for ER homodimer formation (GST-ER-LBD with [35S]-ER): Example 2, FIG. 16B

Molecule | Interaction with GST-TR2 fusion protein [1] | Interaction with GST-TR2 in pull-down assay [1] | Direct interaction with GST-TR2 fusion protein [1] | ER homodimer formation (GST-ER-LBD with [35S]-ER) [2] | other results
RXR: retinoid X receptor, another member of the steroid receptor superfamily | not able to interact | not | not | – | –
ER-#6: interaction blocker, ER fragment aa 312-340, as HA-tagged peptide, expression plasmid or cleaved peptide (ADQMVSALLDAEPPILYSEYDPTRPFSEA; also: HA tag (position not given here); UniProt P03372 312-340, looked up, fragment) | – | – | – | rescued | Interaction of GST-TR2 with [35S]-labeled ER ([1]; increasing amounts of HA-ER-#6 peptide, absence of E2): inhibited
AR: androgen receptor, SEQ ID NO:31 | able to interact | can interact well | directly interact | – | –
TR2: human testicular orphan nuclear receptor 2, 603 amino acids (protein, UniProt P13056 1-603, looked up, full-length, human testicular orphan nuclear receptor 2, 603 amino acids) MATIEEIAHQIIEQQMGEIVTEQQTGQKIQIVTALDHNTQGKQFILTNHDGSTPSKVILARQDSTPGKVFLTTPDAAGVNQLFFTTPDLSAQHLQLLTDNSPDQGPNKVFDLCVVCGDKASGRHYGAVTCEGCKGFFKRSIRKNLVYSCRGSKDCIINKHHRNRCQYCRLQRCIAFGMKQDSVQCERKPIEVSREKSSNCAASTEKIYIRKDLRSPLTATPTFVTDSESTRSTGLLDSGMFMNIHPSGVKTESAVLMTSDKAESCQGDLSTLANVVTSLANLGKTKDLSQNSNEMSMIESLSNDDTSLCEFQEMQTNGDVSRAFDTLAKALNPGESTACQSSVAGMEGSVHLITGDSSINYTEKEGPLLSDSHVAFRLTMPSPMPEYLNVHYIGESASRLLFLSMHWALSIPSFQALGQENSISLVKAYWNELFTLGLAQCWQVMNVATILATFVNCLHNSLQQDKMSTERRKLLMEHIFKLQEFCNSMVKLCIDGYEYAYLKAIVLFSPDHPSLENMEQIEKFQEKAYVEFQDYITKTYPDDTYRLSRLLLRLPALRLMNATITEELFFKGLIGNIRIDSVIPHILKMEPADYNSQIIGHSI | – | – | – | interrupted | –
TR4: human testicular orphan nuclear receptor 4, SEQ ID NO:16; expressed from plasmid or in vitro translated (protein) MTSPSPRIQIISTDSAVASPQRIQGSEPASGPLSVFTSLNKEKIVTDQQTGQKIQIVTAVDASGSPKQQFILTSPDGAGTGKVILASPETSSAKQLIFTTSDNLVPGRIQIVTDSASVERLLGKTDVQRPQVVEYCVVCGDKASGRHYGAVSCEGCKGFFKRSVRKNLTYSCRSSQDCIINKHHRNRCQFCRLKKCLEMGMKMESVQSERKPFDVQREKPSNCAASTEKIYIRKDLRSPLIATPTFVADKDGARQTGLLDPGMLVNIQQPLIREDGTVLLATDSKAETSQGALGTLANVVTSLANLSESLNNGDTSEIQPEDQSASEITRAFDTLAKALNTTDSSSSPSLADGIDTSGGGSIHVISRDQSTPIIEVEGPLLSDTHVTFKLTMPSPMPEYLNVHYICESASRLLFLSMHRARSIPAFQGLGQDCNTSLVRACWNELFTLGLAQCAQVMSLSTILAAIVNHLQNSIQEDKLSGDRIKQVMEHIWKLQEFCNSMANWDIDGYEYAYLKAIVLFSPDHPGLTSTSQIEKFQEKAQMELQDYVQKTYSEDTYRLARILVRLPALRLMSSNITEELFFTGLIGNVSIDSIIPYILKMETAEYNGQITGVSL | – | – | – | – | ER-ER homodimerization (GST-ER-LBD with [35S] ER) ([2]; increasing amounts of TR4, Example 3): inhibit
